Article PMC7584627

What was measured:
[1] = molecular target: ferritin-N96-SpyTag (Helicobacter pylori); experiment: SDS-PAGE of the covalent conjugate, band intensities; conjugated product or conjugation mixture on SDS-PAGE with DTT; band intensity and molecular weight used to work out the molar share of conjugated nanoparticle subunit
[2] = molecular target: LuS-N71-SpyTag (Aquifex aeolicus); experiment: as above

Row | Substance | percent of nanoparticle subunit conjugated [1] [%] | percent of nanoparticle subunit conjugated [2] [%]
1 | RSV F-SpyCatcher | 85 | 67
2 | PIV3 F-SpyCatcher |  | 68
